Here are results for 14 molecules from patent US20030236197A1 (PRAECIS PHARMACEUTICALS, published 2003).

Experiment [1] concerns the target T1, Aβ1-40 peptide (monomeric start material of the nucleation assay). In words: cell-based or functional assay.
Experiment [2] addresses T1, Aβ1-40 peptide (monomeric start …). In words: cell-based or functional assay. The source holds these as a separate data set.

Square brackets hold non-standard residues; d marks the D form. Ends that are not written are not given here. * marks the point of attachment. dPhe(F5) = N[C@H](Cc1c(F)c(F)c(F)c(F)c1F)C(=O)O; dPhe(4-F) = N[C@H](Cc1ccc(F)cc1)C(=O)O; NHiPr = CC(C)N*

With H-[dL][dF][dK][dV][dL]-NH2 (also: 2 TFA salt) [PPI-1321: 2TFA • H-(lfkvl)-NH2], in experiment [1], the “Nucleation assay data (Δ lag) at 0.3 µM compound” value is < 1 ratio of lag time to control, the “Nucleation assay data (Δ lag) at 1 µM compound” value is < 1 ratio of lag time to control and the “Nucleation assay data (Δ lag) at 3 µM compound” value was < 1 ratio of lag time to control.

B1: PPI-1125: 2 TFA • H-lvf-NH-NH-fvl-H (peptide)
peptide: H-[dL]-[dV]-[dF]
modifications: also: dimer: C-termini of two tripeptides joined through hydrazine (-NH-NH-), 2 TFA salt
B1: in experiment [1], the “Nucleation assay data (Δ lag) at 0.6 µM compound (row marked *: measured at 2.5, 1.25 and 0.6 µM)” value was 2 ratio of lag time to control; the “Nucleation assay data (Δ lag) at 1.25 µM compound (row marked *: measured at 2.5, 1.25 and 0.6 µM)” value was > 2.5 ratio of lag time to control; the “Nucleation assay data (Δ lag) at 2.5 µM compound (row marked *: measured at 2.5, 1.25 and 0.6 µM)” value was > 2.5 ratio of lag time to control.

B2: PPI-970: TFA • N-isopropyl-(Gaffvl)-NH2 (peptide)
peptide: G[dA][dF][dF][dV][dL]-NH2
modifications: not fully specified (N-terminus); printed as N-isopropyl-(Gly-D-Ala-D-Phe-D-Phe-D-Val-D-Leu)-NH2; also: TFA salt
Take B2: in experiment [2], the “Nucleation assay Δ lag at 1.25 µM compound” value was 1 ratio of lag time to control, the “Nucleation assay Δ lag at 2.5 µM compound” value was > 5 ratio of lag time to control and the “Nucleation assay Δ lag at 5 µM compound” value is > 5 ratio of lag time to control.
Take {N,N‑diethyl}-[dA][dF][dF][dV][dL]-NH2 (also: TFA salt) [PPI-1006: TFA • N,N-diethyl-(affvl)-NH2]: in experiment [2], the “Nucleation assay Δ lag at 1.25 µM compound” value was 1 ratio of lag time to control, the “Nucleation assay Δ lag at 2.5 µM compound” value was 1 ratio of lag time to control and the “Nucleation assay Δ lag at 5 µM compound” value is 1 ratio of lag time to control.
For {N,N‑dimethyl}-[dA][dF][dF][dV][dL]-NH2 (also: TFA salt) [PPI-913: TFA • N,N-dimethyl-(affvl)-NH2], in experiment [2], the “Nucleation assay Δ lag at 1.25 µM compound” value was 1 ratio of lag time to control, the “Nucleation assay Δ lag at 2.5 µM compound” value was 1 ratio of lag time to control and the “Nucleation assay Δ lag at 5 µM compound” value is 1 ratio of lag time to control.
On to H-[dL][dV][dF][dF][dA]-NHiPr (also: TFA salt) [PPI-992: TFA • H-(lvffa)-isopropylamide], for which, in experiment [2], the “Nucleation assay Δ lag at 1.25 µM compound” value is 1 ratio of lag time to control, the “Nucleation assay Δ lag at 2.5 µM compound” value was 1 ratio of lag time to control and the “Nucleation assay Δ lag at 5 µM compound” value was 3 ratio of lag time to control.
For H-[dL][dF][dPhe(4-F)][dV][dL]-NH2 (also: TFA salt) [PPI-1319: TFA • H-(lf-[p-F]f-vl)-NH2], in experiment [1], the “Nucleation assay data (Δ lag) at 0.3 µM compound” value is 1 ratio of lag time to control, the “Nucleation assay data (Δ lag) at 1 µM compound” value was > 5 ratio of lag time to control and the “Nucleation assay data (Δ lag) at 3 µM compound” value was > 5 ratio of lag time to control.
For the molecule H-[dL][dF][dPhe(F5)][dV][dL]-NH2 (also: TFA salt) [PPI-1320: TFA • H-(lf-[F5]f-vl)-NH2], in experiment [1], the “Nucleation assay data (Δ lag) at 0.3 µM compound” value is 1 ratio of lag time to control, the “Nucleation assay data (Δ lag) at 1 µM compound” value was 3 ratio of lag time to control and the “Nucleation assay data (Δ lag) at 3 µM compound” value is > 5 ratio of lag time to control.
For {N‑methyl}-[dL][dV][dF][dF][dL]-NH2 (also: TFA salt) [PPI-1019: TFA • N-methyl-(lvffl)-NH2], in experiment [1], the “Nucleation assay data (Δ lag) at 0.6 µM compound (row marked *: measured at 2.5, 1.25 and 0.6 µM)” value is 2 ratio of lag time to control; the “Nucleation assay data (Δ lag) at 1.25 µM compound (row marked *: measured at 2.5, 1.25 and 0.6 µM)” value was > 2.5 ratio of lag time to control; the “Nucleation assay data (Δ lag) at 2.5 µM compound (row marked *: measured at 2.5, 1.25 and 0.6 µM)” value is > 2.5 ratio of lag time to control.
Turning to {N,N‑dimethyl}-[dL][dV][dF][dF][dL]-NH2 (also: TFA salt) [PPI-1007: TFA • N,N-dimethyl-(lvffl)-NH2], in experiment [2], the “Nucleation assay Δ lag at 0.3 µM compound (row marked *: measured at 3, 1 and 0.3 µM)” value is 3 ratio of lag time to control; the “Nucleation assay Δ lag at 0.6 µM compound (row marked #: measured at 2.5, 1.25 and 0.6 µM)” value is 1.5 ratio of lag time to control; the “Nucleation assay Δ lag at 1 µM compound (row marked *: measured at 3, 1 and 0.3 µM)” value was 4 ratio of lag time to control; the “Nucleation assay Δ lag at 1.25 µM compound (row marked #: measured at 2.5, 1.25 and 0.6 µM)” value was 1.5 ratio of lag time to control. Besides, in experiment [2], the “Nucleation assay Δ lag at 2.5 µM compound (row marked #: measured at 2.5, 1.25 and 0.6 µM)” value was 1.5 ratio of lag time to control; the “Nucleation assay Δ lag at 3 µM compound (row marked *: measured at 3, 1 and 0.3 µM)” value was 4 ratio of lag time to control.
As for H-[dL][dV][dF][dF][dA]-NMe2 (also: TFA salt) [PPI-993: TFA • H-(lvffa)-dimethylamide], in experiment [2], the “Nucleation assay Δ lag at 1.25 µM compound” value is 1 ratio of lag time to control, the “Nucleation assay Δ lag at 2.5 µM compound” value is 1 ratio of lag time to control and the “Nucleation assay Δ lag at 5 µM compound” value is 1 ratio of lag time to control.
Turning to {N,N‑diethyl}-G[dA][dF][dF][dV][dL]-NH2 (also: TFA salt) [PPI-1005: TFA • N,N-diethyl-(Gaffvl)-NH2], in experiment [2], the “Nucleation assay Δ lag at 1.25 µM compound” value was 1 ratio of lag time to control, the “Nucleation assay Δ lag at 2.5 µM compound” value was 3 ratio of lag time to control and the “Nucleation assay Δ lag at 5 µM compound” value is 3 ratio of lag time to control.
As to {N,N‑dimethyl}-G[dA][dF][dF][dV][dL]-NH2 (also: TFA salt) [PPI-803: TFA • N,N-dimethyl-(Gaffvl)-NH2], in experiment [2], the “Nucleation assay Δ lag at 1.25 µM compound” value is < 1 ratio of lag time to control, the “Nucleation assay Δ lag at 2.5 µM compound” value is < 1 ratio of lag time to control and the “Nucleation assay Δ lag at 5 µM compound” value is < 1 ratio of lag time to control.
On to {N‑methyl}-G[dA][dF][dF][dV][dL]-NH2 (also: TFA salt) [PPI-968: TFA • N-methyl-(Gaffvl)-NH2], for which, in experiment [2], the “Nucleation assay Δ lag at 1.25 µM compound” value was 2 ratio of lag time to control, the “Nucleation assay Δ lag at 2.5 µM compound” value is > 5 ratio of lag time to control and the “Nucleation assay Δ lag at 5 µM compound” value is > 5 ratio of lag time to control.
